Reference: PMC10890041

Biological target: B8(RH)4 ligand: eightfold polymerized B domain from the native Protein A, C-terminally fused with th
Experiment: static batch adsorption on an affinity membrane; Protein A ligand coupled by NHS/EDC (protocol I) to ALA-functionalized ALA@Au_PES200 membrane (6 mm); Trastuzumab 0-0.5 mg/mL in PBS pH 7.4, 1 h, 25 °C, 1000 rpm; supernatant UV-vis at 280 nm, ligand load by direct BCA

## Trastuzumab (antibody)
  stoichiometry N (antibody per Protein A ligand): 3
